Reference: publication PMC10357448

Test: In vitro trypsin digestion, SDS-PAGE densitometry
Conditions: glycan changed form; control: WT (HEK293), one N-glycan

B1: Interleukin-4 (IL-4): WT (P. pastoris) (protein)
parent chain: MGLTSQLLPPLFFLLACAGNFVHGHKCDITLQEIIKTLNSLTEQKTLCTELTVTDIFAASKNTTEKETFCRAATVLRQFYSHHEKDTRCLGATAQQFHRHKQLIRFLKRLDRNLWGLAGLNSCPVKEANQSTLENFLERLKTIMREKYSKCSS
  degradation_or_half_life, half_life: decreases, 2.6 ± 0.2 vs 4.9 ± 0.7
